Laboratory results as given in publication PMC9579051.

Biological target: PSI–LHCI as found in the chloroplast PSI–LHCI dimer (one monomer unit, without PsaH, PsaO and Lhca2) (Chlamydomonas reinhardtii) (UniProt P12154)
Test: cryo-EM structure; heavier green band of the sucrose gradient of affinity-purified PSI cross-linked with activated Pc; 1 mg chlorophyll/ml, vitrified at 4 °C; dimer refined with C2 symmetry, monomer with C1, focused classification on the Pc region

stoichiometry N: 2
Substance: PSI–LHCI as found in the chloroplast PSI–LHCI dimer (one monomer unit, without PsaH, PsaO and Lhca2) (from UniProt P12154 1-751; P09144 1-735; Q39615 36-196; P12352 25-97; P12356 63-227; P14224 31-126; P14225 27-113) (complex)
